In patent US8828380B2, “Method for the treatment of pulmonary disease and method of producing proteins of use therein” (The United States of America, as represented by the …, priority 2009, dated 2014):
Each block holds one compound with its values, some of them ahead of it.

Columns and labels:
ART1 = biological target: T1, ART1 (Mus musculus, UniProt Q60935); test: Substrate test for ART1
T1 sequence (Q60935 23-290 limits assumed): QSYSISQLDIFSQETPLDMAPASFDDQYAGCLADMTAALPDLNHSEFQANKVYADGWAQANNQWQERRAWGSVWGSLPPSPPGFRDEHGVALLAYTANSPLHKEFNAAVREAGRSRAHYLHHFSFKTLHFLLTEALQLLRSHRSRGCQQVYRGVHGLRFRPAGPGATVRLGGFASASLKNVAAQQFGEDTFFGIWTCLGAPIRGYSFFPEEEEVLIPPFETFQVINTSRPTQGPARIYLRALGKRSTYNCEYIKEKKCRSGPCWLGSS

[1] = Incubation of HPLC-purified mono- and di-ADP-ribosyl-HNP-1 at pH 7 or 9, products analysed by HPLC/MS; assay type: physicochemical
Protocol: HNP-1 was incubated overnight at 30° C. with 5 mM NAD in 150 μl of 50 mM potassium phosphate, pH 7.5 and ART1. Reactions were terminated by addition of guanidine HCl to a final concentration of 6 M. Products were separated by HPLC and analyzed by mass spectrometry (MS).
HNP-1 was reduced, cleaved by trypsin, and analyzed by reverse phase chromatography-mass spectrometry as described (Paone et al., Proc. Natl. Acad. Sci. USA 99:8231-8235, 2002), except that the reverse phase column was a Zorbax 300SB-C18, 2.1×50 mm, 3.5 micron, and the mass spectrometer was an Agilent model G1969 with a time of flight detector. Mass spectra were deconvoluted with Agilent software MassHunter version 2, and the fraction of each species was calculated from the areas of the deconvoluted peaks.
To verify that ART1 (or an enzymatic contaminant) was not required for ornithine formation, HPLC-purified mono- and di-modified HNP-1 were incubated for 24 hours at 37° C. at pH 7 or 9 and the reaction products were analyzed by HPLC (FIG. 4, Table 1). Di-ADP-ribosylated-HNP-1 degraded to mono-ADP-ribosylated-HNP-1-ornithine of 3940 molecular mass at pH 7 and the amount was greater at pH 9 (FIG. 4A-D). About 50% of di-ADP-ribosylated-HNP-1 degraded to mono-ADP-ribosylated-HNP-1-ornithine at pH 9, with ADP-ribosylated arginine 14 and ornithine at position 24 or ADP-ribosylated arginine 24 and ornithine at position 14.

arginase = biological target: T2, arginase (Homo sapiens, UniProt P05089); test: Incubation with manganese-activated arginase, products by amino acid analysis and MS; assay type: biochemical; conditions: manganese-activated arginase 0.7 U, pH 9.5, 10 minutes, 37° C.
T2 sequence (P05089 1-322): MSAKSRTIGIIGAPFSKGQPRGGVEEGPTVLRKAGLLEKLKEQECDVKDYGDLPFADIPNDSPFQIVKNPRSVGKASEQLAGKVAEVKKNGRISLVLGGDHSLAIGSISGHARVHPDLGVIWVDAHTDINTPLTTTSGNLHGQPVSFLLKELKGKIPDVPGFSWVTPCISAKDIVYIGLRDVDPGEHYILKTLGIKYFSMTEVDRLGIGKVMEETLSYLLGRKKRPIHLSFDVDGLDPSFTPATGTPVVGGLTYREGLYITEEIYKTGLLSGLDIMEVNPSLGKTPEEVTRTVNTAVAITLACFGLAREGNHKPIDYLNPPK
Protocol: Arginase, found predominantly in liver, catalyzes the hydrolysis of arginine to ornithine in the urea cycle. The enzyme has been reported to require free arginine (Jenkinson et al., Comp. Biochem. Physiol. B Biochem. Mol. Biol. 114:107-132, 1996). HNP-1 was tested as a potential substrate for arginase. HNP-1 (1.4 nmol), mono-ADP-ribosylated-HNP-1 (1 nmol), ADP-ribosylarginine (18 μM), and arginine (5 mM) were each incubated with manganese-activated arginase (0.7 U) at pH 9.5 in 200 μl for 10 minutes at 37° C.

[2] = Non-enzymatic conversion of ADP-ribosylarginine to ornithine, HPLC and amino acid analysis; assay type: physicochemical

substrate for ART1 (ART1): did not
Compound: NCCC[C@H](N)C(=O)O [ornithine, Ornithine]

Compound: N=C(N)NCCCCN [agmatine]
substrate for ART1 (ART1): served as substrates

Compound: ADPR-HNP: HNP-1 ADP-ribosylated on arginine 14
percent of species ADPR-HNP at the end of the incubation ([1]; pH 7, time 0 h): 100% | percent of species ADPR-HNP-Orn at the end of the incubation ([1]; pH 7, time 0 h): 0% | percent of species Di-ADPR-HNP at the end of the incubation ([1]; pH 7, time 0 h): 0% | percent of species Di-Orn-HNP at the end of the incubation ([1]; pH 7, time 0 h): 0% | percent of species HNP at the end of the incubation ([1]; pH 7, time 0 h): 0% | percent of species HNP-Orn at the end of the incubation ([1]; pH 7, time 0 h): 0% | percent of species ADPR-HNP at the end of the incubation ([1]; pH 7, time 24 h): 82 ± 13% | percent of species ADPR-HNP-Orn at the end of the incubation ([1]; pH 7, time 24 h): 0% | percent of species Di-ADPR-HNP at the end of the incubation ([1]; pH 7, time 24 h): 0% | percent of species Di-Orn-HNP at the end of the incubation ([1]; pH 7, time 24 h): 0% | percent of species HNP at the end of the incubation ([1]; pH 7, time 24 h): 0% | percent of species HNP-Orn at the end of the incubation ([1]; pH 7, time 24 h): 18 ± 13% | percent of species ADPR-HNP at the end of the incubation ([1]; pH 9, time 0 h): 100% | percent of species ADPR-HNP-Orn at the end of the incubation ([1]; pH 9, time 0 h): 0% | percent of species Di-ADPR-HNP at the end of the incubation ([1]; pH 9, time 0 h): 0% | percent of species Di-Orn-HNP at the end of the incubation ([1]; pH 9, time 0 h): 0% | percent of species HNP at the end of the incubation ([1]; pH 9, time 0 h): 0% | percent of species HNP-Orn at the end of the incubation ([1]; pH 9, time 0 h): 0% | percent of species ADPR-HNP at the end of the incubation ([1]; pH 9, time 24 h): 61 ± 9% | percent of species ADPR-HNP-Orn at the end of the incubation ([1]; pH 9, time 24 h): 0% | percent of species Di-ADPR-HNP at the end of the incubation ([1]; pH 9, time 24 h): 0% | percent of species Di-Orn-HNP at the end of the incubation ([1]; pH 9, time 24 h): 0% | percent of species HNP at the end of the incubation ([1]; pH 9, time 24 h): 0% | percent of species HNP-Orn at the end of the incubation ([1]; pH 9, time 24 h): 39 ± 9% | ornithine formation by arginase (substrate or not) (arginase): ornithine only in the reaction that contained free arginine

Compound: NC(=NCCC[C@H](N)C(=O)O)N[C@H]1O[C@H](COP(=O)(O)OP(=O)(O)OC[C@H]2O[C@@H](n3cnc4c(N)ncnc43)[C@H](O)[C@@H]2O)[C@@H](O)[C@H]1O [ADP-ribosylarginine]
ornithine formation by arginase (substrate or not) (arginase): ornithine only in the reaction that contained free arginine | product of incubation in acid ([2]; 6N HCl, 37° C., 24 hours): Arginine was cleaved | amount of ornithine generated ([2]; incubation at pH 7 or pH 8): less than at pH 9 | maximal amount of ornithine, of initial ADP-ribosylarginine ([2]; pH 9, 24 hours, 37° C., amino acid analysis without prior acid hydrolysis): 21%

Compound: N=C(N)NCCC[C@H](N)C(=O)O [arginine]
substrate for ART1 (ART1): served as substrates | ornithine formation by arginase (substrate or not) (arginase): ornithine only in the reaction that contained free arginine | ornithine formation after incubation with free ADP-ribose ([2]; 24 hours, 37° C., 20 mM potassium phosphate pH 9): No ornithine was identified
